The target in the experiment is T1, antigenic peptide REEHIEGGHSNTDRPSR (human immunogenic peptide, residues 365-381 of IL4I1) coupled to BSA (human, also: coupled through Ahx spacer and Cys to BSA carrier, end not given here).
T1 peptide: REEHIEGGHSNTDRPSR
Nature of the experiment: ELISA screen against the antigenic peptide coupled to BSA. On the technique in general: ELISA stands for enzyme-linked immunosorbent assay.

Where no end group is shown, it is not given here.

B1: anti-IL4I1 antibody D-5 IgG/λ (rabbit monoclonal, clone D-5, hybridoma CNCM I-5355) (antibody, V domains shown)
VH: QQQLVESGGDLVKPEGSLTLTCTASGFSLSAGYFICWIRQAPGKGLEWIGSVFSGSSGTTYYASWAKGRFTISKTSSTTVTLQMTSLTAADTAIYFCARGGVLGGRVAYDNSFDHWGPGTLVTVSS
VL: ELVLTQSPSVSAALGASAKLTCTLSSAHSTYTIEWYQQQPGESPRYLMQLKSDGSYTKGTGVPDRFSGSSSGADRYLIIFSVQADDEADYYCGANYSSGYVFGGGTQLTVT
notes: Rabbit IgG/lambda from a hybridoma; It was used as hybridoma supernatant (clone D) or as purified IgG (subclone D-5); also called IgG D-5; AbD-5
On to B1, for which the binding result was “binds”.

B2: anti-IL4I1 antibody A-3 IgG/λ (rabbit monoclonal, clone A-3) (antibody, V domains shown)
VH: QSLEESGGDLVKPEGSLTLTCTASGFSLSAGYFMCWVRQAPGKGLEWIGSIFSGSSGSTYYASWAKGRFTISKTSSTTVTLQMTSLTAADTAIYFCARGGVVDGRVAYDNSFDHWGPGTLVTVSS
VL: ELVLTQSPSVSAALGASAKLTCTLSSAHSTYTIDWYQQQPGESPRYLMQLKSDGTYTKGTGVPDRFSGSSSGADRYLIIPSVQADDEAGYYCGANYSGGYVFGGGTQLTVTR
notes: Rabbit IgG/lambda from a hybridoma; It was used as hybridoma supernatant (clone A) or as purified IgG (subclone A-3); also called IgG A-3; AbA-3
As to B2, the binding result is “binds”.

The values are drawn from patent US20200166512A1 (CENTRE NATIONAL DE LA RECHERCHE SCIENTIFIQUE, published 2020).
